Where only a bound is given, the exact number is not on record here.

The record followed here is patent US20240358849A1 (SUZHOU FUSE BIOSCIENCES, published 2024).

Assay [1] has as its target Fc receptor CD64, Avi-tagged (UniProt P12314). The assay can be described thus: BLI, Avi-tagged receptor on streptavidin sensor; IgG complexed with TNFα. A general note: In BLI a coated tip is dipped into the sample, and binding shifts an interference pattern.
For assay [2], the target named is T1, human Fibroblast Activation Protein (FAP), soluble antigen (human, UniProt Q12884 26-760, biotinylated when immobilized on streptavidin sensors).
T1 construct: also called hFAP; biotinylated FAP
The assay can be described thus: Affinity (nM), Table 13B.

The target in assay [3] is T2, IL-2hex, mutant human IL-2 (deltaA1/T3A/F42A/Y45A/L72G/C125S) (human, UniProt P60568 22-153).
T2 chain: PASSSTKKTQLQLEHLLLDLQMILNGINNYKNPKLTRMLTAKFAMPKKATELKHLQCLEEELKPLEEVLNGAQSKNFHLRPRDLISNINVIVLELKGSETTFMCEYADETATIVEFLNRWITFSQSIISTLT
Kind of assay: Affinity (nM), Table 13B.

Assay [4] deals with T1, human Fibroblast Activation Protein …. The assay can be described thus: BLI per 6.1.3.
Assay [5] has as its target T2, IL-2hex, mutant human IL-2 …. The assay can be described thus: BLI per 6.1.3; column head IL-2 KD.
Assay [6] deals with T3, human FAP expressed on cells (HEK 293T-hFAP-E5; ExpiCHO-hFAP) (human, UniProt Q12884 1-760). The assay can be described thus: cell-based or functional assay.
The target in assay [7] is T2, IL-2hex, mutant human IL-2 …. The assay can be described thus: cell-based or functional assay.
For assay [8], the target named is T1, human Fibroblast Activation Protein …. Kind of assay: not stated (legend of FIG. 18B).
The target is the same in assay [9]. The assay can be described thus: not stated (legend of FIG. 13A).
Assay [10] deals with T4, human interleukin-2 (IL-2), wild type (human, UniProt P60568 21-153, biotinylated when immobilized).
T4 construct: also called biotinylated IL-2; IL2 WT
T4 sequence (P60568 21-153): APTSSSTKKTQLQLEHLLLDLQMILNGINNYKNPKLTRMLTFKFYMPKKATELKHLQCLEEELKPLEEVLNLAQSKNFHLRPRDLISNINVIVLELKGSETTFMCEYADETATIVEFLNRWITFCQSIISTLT
The assay can be described thus: BLI, equilibrium binding analysis, biotinylated IL-2 on streptavidin sensor, monovalent Fab-Fc fusion of D002.

In assay [11] the target is T1, human Fibroblast Activation Protein …. The assay can be described thus: BLI, FAP on streptavidin sensor, monovalent Fab-Fc fusion of D002.
The target of assay [12] is T2, IL-2hex, mutant human IL-2 …. Kind of assay: not stated in the sentence (BLI value of FIG. 4B, there told for IL-2).
Assay [13] concerns the target T3, human FAP expressed on cells (HEK …). Kind of assay: flow cytometry, 1 µg/mL antibody. A general note: A flow cytometer gives signals particle by particle.
Assay [14] has as its target T1, human Fibroblast Activation Protein …. The assay can be described thus: bio-layer interferometry; the legend paragraph 249 gives the pair as B10 and FAP; which of the two is loaded on the sensor is not told.
Assay [15] concerns the target T2, IL-2hex, mutant human IL-2 …. Kind of assay: not stated (legend of FIG. 7C).
The target in assay [16] is T1, human Fibroblast Activation Protein …. The assay can be described thus: not stated (legend of FIG. 20B).
For assay [17], the target named is T2, IL-2hex, mutant human IL-2 …. Kind of assay: not stated (legend of FIG. 20B).
The target is the same in assay [18]. The assay can be described thus: screening of phage libraries, monoclonal phage ELISA. In general terms: An ELISA detects its analyte on a solid surface through an enzyme-linked reagent.
The target of assay [19] is T4, human interleukin-2 (IL-2), wild type. Kind of assay: BLI; Table 11, antibody variants (Fab/scFv).
Assay [20] addresses T1, human Fibroblast Activation Protein …. Kind of assay: BLI; Table 11, antibody variants (Fab/scFv).
For assay [21] the target is unchanged. The assay can be described thus: not stated (legend of FIG. 27C).
The target in assay [22] is T2, IL-2hex, mutant human IL-2 …. Kind of assay: not stated (legend of FIG. 7B).
The target of assay [23] is T4, human interleukin-2 (IL-2), wild type. The assay can be described thus: BLI; Table 11 (N.B. = no detectable binding).
In assay [24] the target is T1, human Fibroblast Activation Protein …. Kind of assay: BLI; Table 11, single domain.

Chain of Fc receptor CD64, Avi-tagged (P12314 16-288 limits assumed): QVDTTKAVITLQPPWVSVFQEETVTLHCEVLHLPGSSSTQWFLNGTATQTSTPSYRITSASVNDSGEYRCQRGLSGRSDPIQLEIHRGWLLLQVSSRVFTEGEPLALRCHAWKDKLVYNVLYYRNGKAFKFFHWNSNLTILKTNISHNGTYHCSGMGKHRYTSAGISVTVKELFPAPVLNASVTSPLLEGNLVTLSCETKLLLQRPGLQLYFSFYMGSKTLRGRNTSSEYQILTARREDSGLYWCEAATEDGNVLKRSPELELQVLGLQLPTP

Molecule “Certolizumab IgG, wild-type IgG1 Fc (antibody)” had a CD64 Binding (% of wild-type Certolizumab-IgG1) in assay [1] of 100%.

B1: D029 HV2LV3 (bispecific antibody, V domains shown)
VH: EVQLVESGGGLVQPGGSLRLSCAASGFTFTWFFMSWVRQAPGKGLEWVSWIGPSGLYTDYADSVKGRFTISRDNSKNTLYLQMNSLRAEDTAVYYCARSQYGRYYSPDYYFDYWGQGTLVTVSS
VL: DIQMTQSPSSLSASVGDRVTITCRASGALGFYLNWYQQKPGKAPKLLIYAASSLSSGVPSRFSGSGSGTDFTLTISSLQPEDFATYYCQQGRTPPFTFGQGTKVEIKR
notes: also called Rev1-Q27G:L96F/S55L:S32F; two-in-one antibody within FB-675
Regarding B1, the Kd (commonly the free concentration of one partner at which half of the binding sites on the other are occupied at equilibrium, for simple one-to-one binding) was 3.7 nM in assay [2]; 217 nM in [3]; 3.66 nM in [4]; 217 nM in assay [5]; around 3.66 nM in assay [8]. Further, in assay [6], the “EC50 of HEK-Blue IL2 assay (pM) with HEK 293T-hFAP-E5; variant as masking moiety of a configuration 3 immunoconjugate” value came to 31 pM. Further, the “EC50 of HEK-Blue IL2 assay (pM) with HEK 293T; variant as masking moiety of a configuration 3 immunoconjugate” value in assay [7] was determined as 5300 pM.

B2: scFv70, scFv derived from antibody 872-70 (scFv, V domains shown)
VH: EVQLVESGGGLVQPGGSLRLSCAASGFTFSRYSMSWVRQAPGKGLEWVSYITSTDGTTDYADSVKGRFTISRDNSKNTLYLQMNSLRAEDTAVYYCARSQYGRYYSPDYYFDYWGQGTLVTVSS
VL: DIQMTQSPSSLSASVGDRVTITCRASQSISSYLNWYQQKPGKAPKLLIYAASSLQSGVPSRFSGSGSGTDFTLTISSLQPEDFATYYCQQSRTSPYTFGQGTKVEIKR
notes: Single chain; also called scFv872-70
In assay [9], B2 yielded a Kd of around 1 nM.

B3: anti-IL-2/anti-FAP two-in-one antibody D002 (bispecific antibody, V domains shown)
VH: EVQLVESGGGLVQPGGSLRLSCAASGFTFSRYSMSWVRQAPGKGLEWVSDISSYSTTYYADSVKGRFTISRDNSKNTLYLQMNSLRAEDTAVYYCARSQYGRYYSPDYYFDYWGQGTLVTVSS
VL: DIQMTQSPSSLSASVGDRVTITCRASQSIGNSLNWYQQKPGKAPKLLIYAASSLQSGVPSRFSGSGSGTDFTLTISSLQPEDFATYYCQQGRRSPFTFGQGTKVEIKR
As to B3, the Kd was 3400 nM in assay [10], around 50 nM in assay [11] and around 3400 nM in [12].

B4: two-in-one antibody B10 (bispecific antibody, V domains shown)
VH: EVQLVESGGGLVQPGGSLRLSCAASGFTFSRYSMGWVRQAPGKGLEWVSTIHSHGSGTRYADSVKGRFTISRDNSKNTLYLQMNSLRAEDTAVYYCARSQYGRYYSPDYYFDYWGQGTLVTVSS
VL: DIQMTQSPSSLSASVGDRVTITCRASQNIARYLNWYQQKPGKAPKLLIYAASSLQSGVPSRFSGSGSGTDFTLTISSLQPEDFATYYCQQGRYSPFTFGQGTKVEIKR
With B4, the binding result in [13] and in assay [14] was “binds” each time.

B5: D029 mutant Fab of FB-559 (D029HV1 with D029 VL) (bispecific antibody, V domains shown)
VH: EVQLVESGGGLVQPGGSLRLSCAASGFTFTWSFMSWVRQAPGKGLEWVSWIGPSGLYTDYADSVKGRFTISRDNSKNTLYLQMNSLRAEDTAVYYCARSQYGRYYSPDYYFDYWGQGTLVTVSS
VL: DIQMTQSPSSLSASVGDRVTITCRASQDGGNYLNWYQQKPGKAPKLLIYGASTLYSGVPSRFSGSGSGTDFTLTISSLQPEDFATYYCQQGRTPPLTFGQGTKVEIKR
notes: The legend says only 'D029 mutant'
The molecule B5 gave a Kd in assay [15] of around 400 nM.

B6: D029-HV1LV1 (bispecific antibody, V domains shown)
VH: EVQLVESGGGLVQPGGSLRLSCAASGFTFTWSFMSWVRQAPGKGLEWVSWIGPSGLYTDYADSVKGRFTISRDNSKNTLYLQMNSLRAEDTAVYYCARSQYGRYYSPDYYFDYWGQGTLVTVSS
VL: DIQMTQSPSSLSASVGDRVTITCRASQALGFYLNWYQQKPGKAPKLLIYAASSLSSGVPSRFSGSGSGTDFTLTISSLQPEDFATYYCQQGRTPPLTFGQGTKVEIKR
notes: also called D029 Rev1/S55L; D029HVILV1 (so in the source)
As to B6, the Kd in [2] was 1.8 nM; in assay [3] it was 427 nM; in assay [16], above 5000 nM; in assay [17], around 237 nM. The “EC50 of HEK-Blue IL2 assay (pM) with HEK 293T-hFAP-E5; variant as masking moiety of a configuration 3 immunoconjugate” value in assay [6] is 42 pM. In assay [7], the “EC50 of HEK-Blue IL2 assay (pM) with HEK 293T; variant as masking moiety of a configuration 3 immunoconjugate” value is 6060 pM.

B7: anti-IL-2/anti-FAP two-in-one antibody D001 (bispecific antibody, V domains shown)
VH: EVQLVESGGGLVQPGGSLRLSCAASGFTFSRYSMSWVRQAPGKGLEWVSAISPYGGGTDYADSVKGRFTISRDNSKNTLYLQMNSLRAEDTAVYYCARSQYGRYYSPDYYFDYWGQGTLVTVSS
VL: DIQMTQSPSSLSASVGDRVTITCRASQVIGSSLNWYQQKPGKAPKLLIYAASSLQSGVPSRFSGSGSGTDFTLTISSLQPEDFATYYCQQGRSYPYTFGQGTKVEIKR
notes: Fab/scFv or monovalent Fab-Fc
B7: in assay [18], the binding result is “binds”. Moreover, the results for the Kd in assay [19] and in assay [20] were above 5000 nM and 30 nM, respectively.

B8: anchoring moiety of FB-675 and FB-676: scFv872-5Dbl(S-S) (scFv, V domains shown)
VH: EVQLVESGGGLVQPGGSLRLSCAASGFTFRGYIMSWVRQAPGKGLEWVSWIGPEGSRTGYADSVKGRFTISRDNSKNTLYLQMNSLRAEDTAVYYCARLLYGTWFDYWGQGTLVTVSS
VL: DIQMTQSPSSLSASVGDRVTITCRASQSISSYLNWYQQKPGKAPKLLIYAASSLQSGVPSRFSGSGSGTDFTLTISSLQPEDFATYYCQQGTLLLPTFGQGTKVEIKR
modifications: disulfide to VH at VL residue 100; disulfide to VL at VH residue 44
notes: also called scFv872-5V1
As for B8, the Kd in [21] is around 50 nM; in assay [8], around 5 nM.

B9: two-in-one antibody D047 (bispecific antibody, V domains shown)
VH: EVQLVESGGGLVQPGGSLRLSCAASGFTFHYFSMSWVRQAPGKGLEWVSSISPTYGTTDYADSVKGRFTISRDNSKNTLYLQMNSLRAEDTAVYYCARLLYGTWFDYWGQGTLVTVSS
VL: DIQMTQSPSSLSASVGDRVTITCRASQGIKNYLNWYQQKPGKAPKLLIYAASSLQSGVPSRFSGSGSGTDFTLTISSLQPEDFATYYCQQGSYLQPTFGQGTKVEIKR
notes: Fab in FB-476
Take B9: in assay [13], the binding result was “binds”. The molecule further came in with a Kd in assay [22] of around 20 nM.

B10: single domain anti-FAP antibody VHH6 (VHH)
VHH: EVQLVESGGGLVQPGGSLRLSCAASGFTFTPTYMYWVRQAPGKGLEWVSAIDPYGRTEYPDSVKGRFTISRDNAKNTLYLQMNSLRPEDTAVYYCAVRVPPGVYTYYRTGPYDYWGQGTLVTVSS
As for B10, the binding result is on record as “binds” in assay [13], “no binding” in assay [23] and “binds” in [24].
